In patent US20140295512A1, “Ketol-Acid Reductoisomerases With Improved Performance Properties” (CALIFORNIA INSTITUTE OF TECHNOLOGY, priority 2011, published 2014):

What was measured:
[1] = system: S. cerevisiae host strain GEVO3956; experiment: Shake flask isobutanol fermentations with KARI as limiting pathway enzyme; type: cell-based; details: mean of 3 experiments
Description: In this example, a series of KARI genes were individually expressed from a yeast promoter in conjunction with other components of an isobutanol production pathway in yeast such that KARI was the limiting enzyme in the pathway and the amount of isobutanol produced during a fermentation was dependent on the KARI activity level. In this system, the S. cerevisiae host strain GEVO3956 was used to produce isobutanol when supplied with an isobutanol production pathway plasmid expressing ALS and KIVD, and a low copy number plasmid expressing KARI, DHAD, and ADH enzymes.
Shake flask fermentations using GEVO3956 carrying these individual plasmids were performed together with GEVO3956 carrying pGV3022 (derived from pGV3009 but containing the E. coli ilvC-coSc gene expressed from the Sc_PDC1^−350 promoter) and GEVO3956 carrying pGV3012 (equivalent to pGV3009 lacking the Sc_PDC1^−350 promoter and KARI gene) for comparison of isobutanol production. The shake flask fermentations were performed as follows. The strains were grown overnight in 3 mL of YPD medium containing 1% v/v ethanol and 0.1 g/L G418 at 30° C. and 250 rpm. The OD600 of these cultures was determined after overnight growth and the appropriate amount of culture was added to 50 mL of YP medium containing 5% w/v glucose, 1% v/v ethanol. 200 mM MES, pH 6.5, and 0.1 g/L G418 to obtain an OD600 of 0.1 in 250 mL baffled flasks with sleeve caps. Cultures were incubated at 30° C. and 250 rpm overnight. The OD600 of these cultures was determined after overnight growth and the appropriate amount of culture to total 250 ODs was added to 50 mL Falcon tubes and centrifuged at 2700×g for 5 minutes. The supernatant was removed and cells were resuspended in 50 mL of YP medium containing 8% w/v glucose, 1% v/v ethanol, 200 mM MES, pH 6.5, and 0.1 g/L G418 to obtain a final OD600 of 5 OD per ml. At t=0 the OD600 of each flask was determined. The fermentation cultures were incubated at 30° C. and 250 rpm in non-baffled 250 mL flasks with vented screw cap tops. After 24, 48 and 72 hours of incubation, 1.5 mL of culture was removed into 1.5 mL microcentrifuge tubes from each culture. OD600 values were determined from the samples and the remainder of each sample was centrifuged for 10 min at 14,000 rpm in a microcentrifuge and 1 mL of the supernatant was removed to be submitted for gas chromatographic analysis. Analysis of volatile organic compounds, including ethanol and isobutanol, was performed on an Agilent 6890 gas chromatograph (GC) fitted with a 7683B liquid autosampler, a split/splitless injector port, a ZB-FFAP column (Phenomenex 30 m length, 0.32 mm ID, […] film thickness) connected to a flame ionization detector (FID). […]

[2] = KARI assay in 100-μL scale to measure acetolactate KM value; type: biochemical; details: for Km: NADPH, pH 7.0, read-out: KM (S)-2-acetolactate
Experimental: An assay buffer was prepared containing 100 mM potassium phosphate pH 7.0, 1 mM DTT, 10 mM MgCl2, and 200 μM NADPH (final concentrations). Five μL purified enzyme and 5 μL of varying concentrations of acetolactate (8-0.125 mM final) were placed into a flat-bottom assay plate (Evergreen Scientific). The reactions were initiated by addition of 90 μL assay buffer. The change in absorbance at 340 nm was monitored over 1 min in a plate reader (TECAN).

[3] = KARI assay in 1-mL scale to measure NADH KM value (Example 5); type: biochemical; details: for Km: Example 5, pH 7.0
Experimental: KARI activity was assayed kinetically by monitoring the decrease in NADPH or NADH concentration by measuring the change in absorbance at 340 nm. An assay buffer was prepared containing 100 mM potassium phosphate pH 7.0, 1 mM DTT, 2.5 mM (S)-2-acetolactate, and 10 mM MgCl2 (final concentrations in the 1-mL assay). Twenty μL purified enzyme and 960 μL of the assay buffer were placed into a 1-mL cuvette. The reaction was initiated by addition of 20 μL NADPH or NADH (200 μM final concentration) for a general activity assay. Michaelis-Menten constants for the cofactors were determined with varying concentrations of NADPH or NADH (200-12 μM final).

[4] = KARI assay in 100-μL scale to measure pH optimum; type: biochemical; details: pH 6.0-8.5, NADPH
Experimental: Assay buffers were prepared containing 100 mM potassium phosphate with pH values ranging from 6.0-8.5 in 0.5-steps, 1 mM DTT, 10 mM MgCl2, 2.5 mM acetolactate, and 200 μM NADPH (final concentrations). Ten μL purified enzyme were placed into a flat-bottom assay plate (Evergreen Scientific). The reactions were initiated by addition of 90 μL assay buffer. The change in absorbance at 340 nm was monitored over 1 min in a plate reader (TECAN).

Molecule	48 h isobutanol Titer [1] [g/L]	72 h isobutanol Titer [1] [g/L]	KM, fold lower than the Ki for R-DHIV [2] [fold]	Km [2] [µM]	kcat with NADH ([3]; Example 5) [s⁻¹]	Km [3] [µM]	optimum pH [4]	optimum pH ([4]; listed as S. exigua KARI)	KM for acetolactate, times higher than KM of S. exigua KARI [2] [fold]	KM, fold higher than the Ki for R-DHIV [2] [fold]	NADH KM, times higher than NADH KM for S. exigua KARI [3] [fold]	Km ([3]; listed as E. coli KARI) [µM]
Se1_KARI: Slackia exigua (ATCC 700122) ketol-acid reductoisomerase, wild type, SEQ ID NO: 2 (protein, listed as Slackia exigua) MSVKTKEKEMAVTILYEQDVDPKVIQGLKVGIIGYGSQGHAHALNLMDSGVDVRVGLREGSSSWKTAEEAGLKVTDMDTAAEEADVIMVLVPDEIQPKVYQEHIAAHLKAGNTLAFAHGFNIHYGYIVPPEDVNVIMCAPKGPGHIVRRQFTEGSGVPDLACVQQDATGNAWDIVLSYCWGVGGARSGIIKATFAEETEEDLFGEQAVLCGGLVELVKAGFETLTEAGYPPELAYFECYHEMKMIVDLMYESGIHFMNYSISNTAEYGEYYAGPKVINEQSREAMKEILKRIQDGSFAQEFVDDCNNGHKRLLEQREAINTHPIETTGAQIRSMFSWIKKED	2.82 ± 0.11	4.40 ± 0.34	10	170	0.4	45 ± 10	7	approximately 7.0	–	–	–	–
E. coli IlvC: Escherichia coli ketol-acid reductoisomerase (ilvC), wild type (protein, UniProt P05793 2-491, looked up) Ketol-acid reductoisomerase …: ANYFNTLNLRQQLAQLGKCRFMGRDEFADGASYLQGKKVVIVGCGAQGLNQGLNMRDSGLDISYALRKEAIAEKRASWRKATENGFKVGTYEELIPQADLVINLTPDKQHSDVVRTVQPLMKDGAALGYSHGFNIVEVGEQIRKDITVVMVAPKCPGTEVREEYKRGFGVPTLIAVHPENDPKGEGMAIAKAWAAATGGHRAGVLESSFVAEVKSDLMGEQTILCGMLQAGSLLCFDKLVEEGTDPAYAEKLIQFGWETITEALKQGGITLMMDRLSNPAKLRAYALSEQLKEIMAPLFQKHMDDIISGEFSSGMMADWANDDKKLLTWREETGKTAFETAPQYEGKIGEQEYFDKGVLMIAMVKAGVELAFETMVDSGIIEESAYYESLHELPLIANTIARKRLYEMNVVISDTAEYGNYLFSYACVPLLKPFMAELQPGDLGKAIPEGAVDNGQLRDVNEAIRSHAIEQVGKKLRGYMTDMKRIAVAG	3.93 ± 1.16	4.72 ± 0.90	–	300 ± 100	–	1000	7.5	–	32	3	22	~1000
